Bounds are passed on as bounds.

The target in the first experiment is p50-mKGC (pCONT-2) (UniProt P19838). Description: split reporter (BiFC, NanoBiT); split mKusabira-Green BiFC in 293T cells, lipofection of mKGN-ORF18 alanine-scanning mutants with ORF30-mKGC and mCherry as transfection control; mCherry-positive cells gated, % mKG-positive cells by flow cytometry; block mutants under 20% and single mutants under 60% counted as binding-negative.
Sequence of UniProt P19838 (P19838 1-433): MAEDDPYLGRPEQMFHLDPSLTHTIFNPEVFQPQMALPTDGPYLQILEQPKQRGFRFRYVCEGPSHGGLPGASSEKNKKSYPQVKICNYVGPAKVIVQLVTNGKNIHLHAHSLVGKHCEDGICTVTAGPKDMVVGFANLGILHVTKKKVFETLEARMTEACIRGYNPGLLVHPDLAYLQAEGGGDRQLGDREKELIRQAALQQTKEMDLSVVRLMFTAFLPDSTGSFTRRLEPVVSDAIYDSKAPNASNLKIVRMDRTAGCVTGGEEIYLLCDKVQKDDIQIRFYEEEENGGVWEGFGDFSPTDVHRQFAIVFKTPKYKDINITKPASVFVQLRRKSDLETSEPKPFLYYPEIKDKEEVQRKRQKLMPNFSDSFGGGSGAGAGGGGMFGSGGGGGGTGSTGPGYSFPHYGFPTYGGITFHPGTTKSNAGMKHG
Details: not given
(In general: Flow cytometry measures light scatter and fluorescence of single cells or particles in a stream.)
As to “p65-mKGN (pCONT-1) (from UniProt Q04206 1-551) (natural protein)”, the mKG-positive cells (%) was more than 90%.

The next experiment deals with C-terminally mKGC-tagged ORF30 (ORF30-mKGC). Description: BiFC assay, flow cytometry. The conditions noted are these: 293T cells; co-transfected with mCherry transfection control; three independent samples; ASC10mut protein expression was not confirmed by Western blotting; parent: 99.8.
On to “N-terminally mKGN-tagged ORF18 (mKGN-ORF18) WT P156A; R158A; L159A”, for which the response was found to be 14.4%.

Still in this experiment, the particulars now being: 293T cells; co-transfected with mCherry transfection control; three independent samples; parent: 99.8.
For the substance “N-terminally mKGN-tagged ORF18 (mKGN-ORF18) WT C166A; L167A; W170A; G171A”, the response was 14.2%.

For “N-terminally mKGN-tagged ORF18 (mKGN-ORF18) WT E36A; L37A; R38A”, the response is 9.76%.

With “N-terminally mKGN-tagged ORF18 (mKGN-ORF18) WT E176A; V179A; R180A”, the response stood at 75.3%.

For the substance “N-terminally mKGN-tagged ORF18 (mKGN-ORF18) WT F187A; L191A”, the response stood at 32.7%.

“N-terminally mKGN-tagged ORF18 (mKGN-ORF18) WT G3A”: the response came out at 99.8%.

With “N-terminally mKGN-tagged ORF18 (mKGN-ORF18) WT G195A; L197A”, the response came to 87.5%.

On to “N-terminally mKGN-tagged ORF18 (mKGN-ORF18) WT H41A; L44A”, for which the response was found to be 16.2%.

For the substance “N-terminally mKGN-tagged ORF18 (mKGN-ORF18) WT L24A; L29A”, the response stood at 16.7%.

On to “N-terminally mKGN-tagged ORF18 (mKGN-ORF18) WT L142A; D144A; G145A; N146A”, for which the response turned out to be 81.3%.

With “N-terminally mKGN-tagged ORF18 (mKGN-ORF18) WT L151A; G152A; S153A”, the response turned out to be 72.6%.

Regarding “N-terminally mKGN-tagged ORF18 (mKGN-ORF18) WT N53A; Y55A; L56A”, the response amounted to 39.9%.

With “N-terminally mKGN-tagged ORF18 (mKGN-ORF18) WT P14A; G15A; L19A”, the response was determined as 14.1%.

Staying with this experiment, now noted: 293T cells; co-transfected with mCherry transfection control; three independent samples; parent: 99.9.
For “N-terminally mKGN-tagged ORF18 (mKGN-ORF18) WT C166A”, the response was determined as 99.6%.

In the case of “N-terminally mKGN-tagged ORF18 (mKGN-ORF18) WT E36A”, the response is 55.9%.

Consider “N-terminally mKGN-tagged ORF18 (mKGN-ORF18) WT G15A”, for which the response is 99.6%.

For the substance “N-terminally mKGN-tagged ORF18 (mKGN-ORF18) WT G171A”, the response is 98.6%.

Turning to “N-terminally mKGN-tagged ORF18 (mKGN-ORF18) WT H41A”, the response amounted to 47.4%.

As for “N-terminally mKGN-tagged ORF18 (mKGN-ORF18) WT L19A”, the response was found to be 99.1%.

For the substance “N-terminally mKGN-tagged ORF18 (mKGN-ORF18) WT L24A”, the response was 93.4%.

In the case of “N-terminally mKGN-tagged ORF18 (mKGN-ORF18) WT L29A”, the response is 58.8%.

For the substance “N-terminally mKGN-tagged ORF18 (mKGN-ORF18) WT L37A”, the response came to 98.7%.

For “N-terminally mKGN-tagged ORF18 (mKGN-ORF18) WT L44A”, the response came to 94.7%.

As for “N-terminally mKGN-tagged ORF18 (mKGN-ORF18) WT L159A”, the response was determined as 99.9%.

As for “N-terminally mKGN-tagged ORF18 (mKGN-ORF18) WT L167A”, the response stood at 96.6%.

As for “N-terminally mKGN-tagged ORF18 (mKGN-ORF18) WT P14A”, the response was determined as 99.9%.

In the case of “N-terminally mKGN-tagged ORF18 (mKGN-ORF18) WT P156A”, the response was 99.8%.

With “N-terminally mKGN-tagged ORF18 (mKGN-ORF18) WT R158A”, the response stood at 87.3%.

On to “N-terminally mKGN-tagged ORF18 (mKGN-ORF18) WT W170A”, for which the response came to 25.6%.

Another experiment has as its target C-terminally mKGC-tagged ORF30 (ORF30-mKGC) (Kaposi's sarcoma-associated herpesvirus (KSHV; BAC16, strain JSC-1)). Description: split reporter (BiFC, NanoBiT); split mKusabira-Green (mKGN/mKGC) BiFC in 293T cells, co-transfected by the calcium phosphate method, all combinations of tag type and location; cells fixed two days after transfection, gated by FSC/SSC, ratio of mKG-positive cells by flow cytometry.
Details: not given
“N-terminally mKGN-tagged ORF18 (mKGN-ORF18) WT (natural protein)”: the mKG-positive cells (%) worked out at 70%.

The values above are taken from article PMC9456320.
